For three molecules, binding result and Kd results are on record in publication PMC10801922 (Proceedings of the National Academy of Sciences of the …, 2024).

For orientation: Kd means the constant that tells how readily two partners part at equilibrium. Lower therefore signals a tighter complex.

For experiment [1], the target named is T1, SARS-CoV-2 G614 (wild-type) receptor-binding domain (SARS-CoV-2, UniProt P0DTC2).
T1 construct: also called RBD of G614; G614 RBD
The experiment can be described thus: ELISA. Conditions: both partners purified. Background: An ELISA detects its analyte on a solid surface through an enzyme-linked reagent.

The target in experiment [2] is SARS-CoV-2 Delta (B.1.617.2) receptor-binding domain (SARS-CoV-2 Delta (B.1.617.2), strain).
For experiment [3], the target named is T1, SARS-CoV-2 G614 (wild-type) ….
Experiment [4] addresses SARS-CoV-2 Alpha (B.1.1.7) receptor-binding domain (SARS-CoV-2 Alpha (B.1.1.7), strain).

B1: XG014 IgG (antibody, V domains shown)
VH: EVQLVQSGAEVKKPGESLKISCKGSGYSFSNYWIGWVRHMPGKGLEWMGIIYPGDSDTRYSPSFQGQVTISVDTSISTAYLQWSSLKASDTAMYYCTRHQYGYNYGYFYYYIDVWGKGTTVTVSS
VL: QSVLTQPPSVSAAPGQKVTISCSGSSSNIGNNPVSWYRQVPGTAPKLLIYDNNKRPSGIPDRFSGSKSGASATLGITGLQTGDEADYYCGTWHTSLSSGVFGGGTKLTVL
notes: also called parental IgG; source: recombinant
Take B1: the binding result in experiment [1] is “binds”.

B2: 01A05 (antibody, V domains shown)
VH: QVQLVQSGAEVKKPGASVKVSCKASGYTFTSYGISWVRQAPGQGLEWMGWISADNGNTNYAQKLQGRVTMTTDTSTSTAYMELRSLRSDDTAVYYCARVPMFVVPNCSGGGCYRRAWEAGLDVWGQGTTVTVSS
VL: DIQMTQSPSSLSASVGDRVTITCRASQSISNYLNWYQQRPGRAPKLLIYTTSNLQSGVPSRFSGSGSGTDFTLTISSLQPEDFATYFCQQSFTGTFGGGTKVEIK
For B2, the binding result in experiment [2] and in experiment [4] was “binds” in each case. The molecule further gave a Kd in experiment [3] of 2.5 nM.

B3: rmAb23 (antibody, V domains shown)
VH: EVQLVESGGGLIQPGGSLRLSCAASGFTVSSNYMSWVRQAPGKGLEWVAVIYSGGSTDYADSVKGRFTISRDNSKNTLHLQMNSLRAEDTAVYYCARDLVVYGMDVWGQGTTVTVSS
VL: DIQLTQSPSFLSASVGDRVTITCRASQGISSYLAWYQQKPGKAPKLLIYAASTLQSGVPSRFSGSGSGTEFTLTISSLQPEDFATYYCQQLNSYPLTFGPGTKVDIK
Consider B3, for which the binding result in experiment [2] and in experiment [4] was “binds” throughout. This molecule registered a Kd in experiment [3] of 6.5 nM.
